From publication PMC4336627 come the findings set out here.

The target of the assay is Flag-6xHis-TET2^CD (human). Put plainly: pull-down.

“Flag-WT1 (purified recombinant) (from UniProt P19544 1-449) (natural protein)” showed a stoichiometry N of 1.

The stoichiometry N is the number of molecules, sites or subunits per partner or assembly.
